This assay addresses rat neurokinin-1 receptor (NK-1R) (rat) (UniProt P14600).

Experimental findings from patent publication US20040253248A1 are described below.

rat neurokinin-1 receptor (NK-1R) (rat), sequence (P14600 whole entry): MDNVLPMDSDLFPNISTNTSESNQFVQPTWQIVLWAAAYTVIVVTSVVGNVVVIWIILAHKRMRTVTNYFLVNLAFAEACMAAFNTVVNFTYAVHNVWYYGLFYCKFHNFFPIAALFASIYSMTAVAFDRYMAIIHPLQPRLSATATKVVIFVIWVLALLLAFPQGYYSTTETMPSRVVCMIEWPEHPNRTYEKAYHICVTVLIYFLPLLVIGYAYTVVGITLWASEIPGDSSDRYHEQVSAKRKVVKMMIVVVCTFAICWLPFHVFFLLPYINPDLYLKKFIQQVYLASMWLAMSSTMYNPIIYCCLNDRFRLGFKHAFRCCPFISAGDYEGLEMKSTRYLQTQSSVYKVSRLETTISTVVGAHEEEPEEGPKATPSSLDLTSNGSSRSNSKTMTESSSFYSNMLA

The substance “[Sar9, Met (02)11]-SP-SAP (from UniProt P20656 25-277)” came in with an IC50 (read off the curve) of 0.2 nM.
